In IntAct's records for PubMed 24929360:

B1: Catenin delta-1 (Mus musculus), P30999 (parent)
chain: MDDSEVESTASILASVKEQEAQFEKLTRALEEERRHVSAQLERVRVSPQDANSLMANGTLTRRHQNGRFVGDADLERQKFSDLKLNGPQDHNHLLYSTIPRMQEPGQIVETYTEEDPEGAMSVVSVETTDDGTTRRTETTVKKVVKTMTTRTVQPVPMGPDGLPVDASAVSNNYIQTLGRDFRKNGNGGPGPYVGQAGTATLPRNFHYPPDGYGRHYEDGYPGGSDNYGSLSRVTRIEERYRPSMEGYRAPSRQDVYGPQPQVRVGGSSVDLHRFHPEPYGLEDDQRSMGYDDLDYGMMSDYGTARRTGTPSDPRRRLRSYEDMIGEEVPPDQYYWAPLAQHERGSLASLDSLRKGMPPPSNWRQPELPEVIAMLGFRLDAVKSNAAAYLQHLCYRNDKVKTDVRKLKGIPILVGLLDHPKKEVHLGACGALKNISFGRDQDNKIAIKNCDGVPALVRLLRKARDMDLTEVITGTLWNLSSHDSIKMEIVDHALHALTDEVIIPHSGWEREPNEDCKPRHIEWESVLTNTAGCLRNVSSERSEARRKLRECDGLVDALIFIVQAEIGQKDSDSKLVENCVCLLRNLSYQVHREIPQAERYQEALPTVANSTGPHAASCFGAKKGKDEWFSRGKKPTEDPANDTVDFPKRTSPARGYELLFQPEVVRIYISLLKESKTPAILEASAGAIQNLCAGRWTYGRYIRSALRQEKALSAIAELLTSEHERVVKAASGALRNLAVDARNKELIGKHAIPNLVKNLPGGQQNSSWNFSEDTVVSILNTINEVIAENLEAAKKLRETQGIEKLVLINKSGNRSEKEVRAAALVLQTIWGYKELRKPLEKEGWKKSDFQVNLNNASRSQSSHSYDDSTLPLIDRNQKSDKKPDREEIPMSNMGSNTKSLDNNYSTLNERGDHNRTLDRSGDLGDMEPLKGAPLMQKI

Variants of: B1
Conditions: with cadh2_mouse Cdh2, P15116
Sequence of cadh2_mouse Cdh2, P15116 (P15116 whole entry): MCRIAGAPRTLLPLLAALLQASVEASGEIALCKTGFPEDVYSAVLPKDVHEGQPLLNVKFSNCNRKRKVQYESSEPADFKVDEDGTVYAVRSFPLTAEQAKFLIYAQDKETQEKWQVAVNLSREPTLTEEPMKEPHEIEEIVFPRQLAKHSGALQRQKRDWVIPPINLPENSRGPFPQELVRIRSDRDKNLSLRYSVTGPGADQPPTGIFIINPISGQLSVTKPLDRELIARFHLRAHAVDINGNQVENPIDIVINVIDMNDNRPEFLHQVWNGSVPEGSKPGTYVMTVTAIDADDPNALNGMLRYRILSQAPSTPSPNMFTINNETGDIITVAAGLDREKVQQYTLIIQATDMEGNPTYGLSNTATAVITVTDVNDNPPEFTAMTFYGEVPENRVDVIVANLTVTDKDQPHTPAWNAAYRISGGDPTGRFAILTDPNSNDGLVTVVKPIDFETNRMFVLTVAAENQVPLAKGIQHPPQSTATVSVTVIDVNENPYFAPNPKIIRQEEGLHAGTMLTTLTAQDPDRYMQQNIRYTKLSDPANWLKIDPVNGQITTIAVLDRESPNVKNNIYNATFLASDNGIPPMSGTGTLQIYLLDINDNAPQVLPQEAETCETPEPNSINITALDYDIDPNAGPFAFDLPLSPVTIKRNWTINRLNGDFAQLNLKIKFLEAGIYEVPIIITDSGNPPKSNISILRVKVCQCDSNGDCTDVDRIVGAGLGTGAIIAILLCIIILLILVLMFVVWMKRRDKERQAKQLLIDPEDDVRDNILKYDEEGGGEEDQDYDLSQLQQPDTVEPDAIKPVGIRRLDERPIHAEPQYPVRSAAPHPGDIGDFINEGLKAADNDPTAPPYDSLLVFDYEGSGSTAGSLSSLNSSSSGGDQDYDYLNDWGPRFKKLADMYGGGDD

| Variant | effect of a mutation on the interaction |
| --- | --- |
| T310A | increasing interaction strength |
